Reference: patent US20180284135A1

Target: T1, intact recombinant human POSTN (periostin, SEQ ID NO: 1)
T1 chain: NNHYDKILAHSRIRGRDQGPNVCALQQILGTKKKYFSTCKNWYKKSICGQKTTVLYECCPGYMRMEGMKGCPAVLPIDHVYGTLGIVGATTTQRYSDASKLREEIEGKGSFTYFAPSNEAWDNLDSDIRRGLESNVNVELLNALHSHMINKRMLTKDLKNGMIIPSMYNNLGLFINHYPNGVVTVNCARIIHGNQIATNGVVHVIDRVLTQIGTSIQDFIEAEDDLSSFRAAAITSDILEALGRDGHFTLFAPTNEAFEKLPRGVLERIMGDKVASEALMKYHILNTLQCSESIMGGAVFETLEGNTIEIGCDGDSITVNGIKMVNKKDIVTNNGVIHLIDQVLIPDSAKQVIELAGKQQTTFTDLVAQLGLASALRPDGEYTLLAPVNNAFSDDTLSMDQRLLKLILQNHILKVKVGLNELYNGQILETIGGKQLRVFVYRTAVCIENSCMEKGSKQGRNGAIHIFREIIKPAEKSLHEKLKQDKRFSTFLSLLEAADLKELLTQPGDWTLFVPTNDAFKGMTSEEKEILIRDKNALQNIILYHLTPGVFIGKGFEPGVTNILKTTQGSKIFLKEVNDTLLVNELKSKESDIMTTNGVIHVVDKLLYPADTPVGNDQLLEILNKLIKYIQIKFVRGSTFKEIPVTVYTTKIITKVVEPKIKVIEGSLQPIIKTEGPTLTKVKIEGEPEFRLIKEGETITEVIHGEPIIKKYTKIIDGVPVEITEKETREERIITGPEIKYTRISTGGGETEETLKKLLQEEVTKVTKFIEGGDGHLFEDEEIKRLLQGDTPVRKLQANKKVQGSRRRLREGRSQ

B1: human CatK of SEQ ID NO: 19 (Cathepsin K) (protein)
chain: APDSVDYRKKGYVTPVKNQGQCGSCWAFSSVGALEGQLKKKTGKLLNLSPQNLVDCVSENDGCGGGYMTNAFQYVQKNRGIDSEDAYPYVGQEESCMYNPTGKAAKCRGYREIPEGNEKALKRAVARVGPVSVAIDASLTSFQFYSKGVYYDESCNSDNLNHAVLAVGYGIQKGNKHWIIKNSWGENWGNKGYILMARNKNNACGIANLASFPKM
  CatK digestion of human recombinant POSTN (SDS-PAGE, LC-MS/MS): human POSTN is a substrate to CatK-dependent enzymatic digestion that is generating large amount of several peptides
